Values of other authors, collected in publication PMC8773757.
One block for each substance: values may come before it.

How the values were obtained:
p300/CBP (Homo sapiens) = p300/CBP (Homo sapiens) (UniProt Q09472)
CDC37 (Homo sapiens) = CDC37 (Homo sapiens) (UniProt Q16543)
[1] = target: HIF-1α PAS-B (Homo sapiens) (UniProt Q16665)
[2] = target: thymidylate synthase (Homo sapiens) (UniProt P04818)

UniProt Q09472, sequence (Q09472 2-2414): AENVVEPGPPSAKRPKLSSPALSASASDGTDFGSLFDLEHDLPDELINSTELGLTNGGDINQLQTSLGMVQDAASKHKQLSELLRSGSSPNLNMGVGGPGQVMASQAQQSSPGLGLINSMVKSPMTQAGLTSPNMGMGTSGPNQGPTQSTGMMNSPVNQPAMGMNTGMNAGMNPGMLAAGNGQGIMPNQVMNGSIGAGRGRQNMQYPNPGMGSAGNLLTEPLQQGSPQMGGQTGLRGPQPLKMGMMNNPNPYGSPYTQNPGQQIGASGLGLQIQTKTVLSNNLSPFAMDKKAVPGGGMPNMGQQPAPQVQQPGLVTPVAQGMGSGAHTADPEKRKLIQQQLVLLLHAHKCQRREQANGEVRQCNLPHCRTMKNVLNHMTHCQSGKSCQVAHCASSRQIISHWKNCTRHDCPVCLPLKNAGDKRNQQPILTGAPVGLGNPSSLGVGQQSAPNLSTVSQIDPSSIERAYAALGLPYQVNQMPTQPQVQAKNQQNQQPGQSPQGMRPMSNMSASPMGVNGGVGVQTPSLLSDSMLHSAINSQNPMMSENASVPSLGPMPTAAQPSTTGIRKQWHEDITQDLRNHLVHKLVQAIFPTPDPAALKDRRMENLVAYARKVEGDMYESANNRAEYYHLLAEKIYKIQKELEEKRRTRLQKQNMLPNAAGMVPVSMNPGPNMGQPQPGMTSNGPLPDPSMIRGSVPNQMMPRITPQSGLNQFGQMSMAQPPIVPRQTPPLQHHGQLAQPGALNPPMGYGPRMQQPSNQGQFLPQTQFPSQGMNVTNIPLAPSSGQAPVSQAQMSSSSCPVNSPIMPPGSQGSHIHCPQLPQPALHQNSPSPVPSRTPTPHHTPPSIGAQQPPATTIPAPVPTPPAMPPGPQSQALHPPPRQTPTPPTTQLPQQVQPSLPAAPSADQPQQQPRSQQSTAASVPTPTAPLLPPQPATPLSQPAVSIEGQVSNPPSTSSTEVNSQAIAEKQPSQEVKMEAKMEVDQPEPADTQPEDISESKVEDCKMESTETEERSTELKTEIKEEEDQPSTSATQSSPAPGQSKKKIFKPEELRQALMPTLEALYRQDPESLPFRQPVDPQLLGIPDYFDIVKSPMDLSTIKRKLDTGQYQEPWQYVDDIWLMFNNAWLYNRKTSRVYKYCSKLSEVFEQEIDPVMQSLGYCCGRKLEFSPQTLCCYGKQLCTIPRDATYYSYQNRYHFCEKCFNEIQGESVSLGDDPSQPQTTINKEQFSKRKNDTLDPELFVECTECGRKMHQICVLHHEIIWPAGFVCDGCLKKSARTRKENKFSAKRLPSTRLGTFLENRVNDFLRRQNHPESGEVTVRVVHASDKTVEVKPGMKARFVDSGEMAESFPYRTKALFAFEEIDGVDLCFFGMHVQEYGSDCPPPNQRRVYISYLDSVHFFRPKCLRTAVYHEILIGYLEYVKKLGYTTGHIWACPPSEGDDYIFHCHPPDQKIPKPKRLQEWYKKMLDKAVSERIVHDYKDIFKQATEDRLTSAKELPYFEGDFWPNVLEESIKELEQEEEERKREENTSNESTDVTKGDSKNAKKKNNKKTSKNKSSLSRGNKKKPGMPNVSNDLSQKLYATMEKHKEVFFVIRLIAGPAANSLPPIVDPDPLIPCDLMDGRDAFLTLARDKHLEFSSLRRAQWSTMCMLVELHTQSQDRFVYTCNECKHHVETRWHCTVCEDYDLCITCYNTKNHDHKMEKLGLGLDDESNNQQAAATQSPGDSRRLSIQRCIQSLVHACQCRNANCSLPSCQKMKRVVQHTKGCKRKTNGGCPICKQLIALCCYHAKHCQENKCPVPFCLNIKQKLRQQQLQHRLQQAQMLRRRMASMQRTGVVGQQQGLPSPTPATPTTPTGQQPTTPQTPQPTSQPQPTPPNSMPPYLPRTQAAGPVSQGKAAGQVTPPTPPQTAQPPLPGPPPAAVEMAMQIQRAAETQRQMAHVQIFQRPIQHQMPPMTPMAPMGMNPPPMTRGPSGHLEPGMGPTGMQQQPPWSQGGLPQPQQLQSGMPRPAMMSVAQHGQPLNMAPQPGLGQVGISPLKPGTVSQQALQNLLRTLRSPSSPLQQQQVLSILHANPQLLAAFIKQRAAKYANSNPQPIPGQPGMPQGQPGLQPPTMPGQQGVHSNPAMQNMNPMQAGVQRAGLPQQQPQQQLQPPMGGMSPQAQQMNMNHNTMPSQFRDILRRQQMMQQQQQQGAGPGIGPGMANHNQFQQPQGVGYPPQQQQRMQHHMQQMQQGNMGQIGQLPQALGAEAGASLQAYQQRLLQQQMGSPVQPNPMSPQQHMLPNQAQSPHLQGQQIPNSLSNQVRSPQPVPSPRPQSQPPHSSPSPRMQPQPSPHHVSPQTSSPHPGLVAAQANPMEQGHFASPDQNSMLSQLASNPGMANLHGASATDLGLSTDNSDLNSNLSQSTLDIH
HIF-1α, sequence (Q16665 whole entry): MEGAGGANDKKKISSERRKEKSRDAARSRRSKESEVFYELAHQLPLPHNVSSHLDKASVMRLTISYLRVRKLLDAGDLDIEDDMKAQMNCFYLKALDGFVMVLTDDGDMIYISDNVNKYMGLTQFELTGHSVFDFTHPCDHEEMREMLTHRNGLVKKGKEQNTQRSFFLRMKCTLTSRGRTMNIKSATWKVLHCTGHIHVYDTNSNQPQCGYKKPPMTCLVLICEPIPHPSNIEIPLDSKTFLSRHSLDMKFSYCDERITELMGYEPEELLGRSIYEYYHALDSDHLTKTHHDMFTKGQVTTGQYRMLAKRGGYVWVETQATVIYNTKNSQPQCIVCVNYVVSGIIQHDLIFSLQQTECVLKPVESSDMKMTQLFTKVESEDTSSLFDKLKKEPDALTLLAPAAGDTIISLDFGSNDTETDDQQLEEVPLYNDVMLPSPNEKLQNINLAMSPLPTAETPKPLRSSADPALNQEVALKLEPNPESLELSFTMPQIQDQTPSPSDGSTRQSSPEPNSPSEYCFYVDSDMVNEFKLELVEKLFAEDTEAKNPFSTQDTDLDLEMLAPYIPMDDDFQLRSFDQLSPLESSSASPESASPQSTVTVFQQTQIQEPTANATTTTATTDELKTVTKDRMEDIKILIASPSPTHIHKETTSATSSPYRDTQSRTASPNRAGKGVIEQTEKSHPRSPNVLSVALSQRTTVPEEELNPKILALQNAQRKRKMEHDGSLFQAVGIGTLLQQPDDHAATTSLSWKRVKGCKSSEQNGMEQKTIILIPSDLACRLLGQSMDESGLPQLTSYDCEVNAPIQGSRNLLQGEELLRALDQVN
UniProt Q16543, sequence (Q16543 2-378): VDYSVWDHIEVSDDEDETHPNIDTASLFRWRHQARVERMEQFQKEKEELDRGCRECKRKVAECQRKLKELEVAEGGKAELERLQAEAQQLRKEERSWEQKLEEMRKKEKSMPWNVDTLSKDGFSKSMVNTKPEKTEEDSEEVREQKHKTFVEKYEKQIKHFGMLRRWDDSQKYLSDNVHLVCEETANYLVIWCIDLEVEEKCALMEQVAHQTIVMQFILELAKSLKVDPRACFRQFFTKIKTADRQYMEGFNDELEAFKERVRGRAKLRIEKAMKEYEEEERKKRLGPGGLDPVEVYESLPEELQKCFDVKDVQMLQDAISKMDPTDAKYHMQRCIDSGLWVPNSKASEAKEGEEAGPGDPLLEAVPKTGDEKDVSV

- Kd (p300/CBP (Homo sapiens)): 7 nM
Substance: HIF-1α (from UniProt Q16665)

- Kd (CDC37 (Homo sapiens)): 100000 nM
Substance: HSP90 (from UniProt P07900)

Substance: cyclo-CLLFVY
- Kd [1]: 124 nM

- Kd [2]: 200 nM
Substance: thymidylate synthase (from UniProt P04818)
